Molecular target: Hen egg-white lysozyme (Hewl) (hen) (UniProt P00698)
Sequence (P00698 19-147): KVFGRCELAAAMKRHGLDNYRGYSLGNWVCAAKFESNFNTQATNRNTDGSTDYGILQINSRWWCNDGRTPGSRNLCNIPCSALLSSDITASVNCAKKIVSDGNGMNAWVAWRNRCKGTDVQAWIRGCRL

Substance	reduction of Hewl (10 U/well)-mediated lysis of M. lysodeikticus cells (OD at 595 nm, 25 °C), rNm-ACP 6-180 pmol/well, read at 2 h and 24 h [%]	reduction of Hewl (10 U/well)-mediated lysis of M. lysodeikticus cells (OD at 595 nm, 25 °C), rDn-ACP 3-90 pmol/well, read at 2 h and 24 h [%]
recombinant Neisseria meningitidis Adhesin Complex Protein (rNm-ACP) (natural protein)	80	–
recombinant Dichelobacter nodosus Adhesin Complex Protein (rDn-ACP) (from UniProt A5EV15 1-230) (natural protein)	–	100

Source: PMC6624275
